Assay [1] addresses T1, cynomolgus monkey SIRPα on CHO cells (cynomolgus monkey, UniProt A0A2K5VYQ9 31-507).
T1 construct: whole, on cells; also called Cyno SIRPα CHO
T1 sequence: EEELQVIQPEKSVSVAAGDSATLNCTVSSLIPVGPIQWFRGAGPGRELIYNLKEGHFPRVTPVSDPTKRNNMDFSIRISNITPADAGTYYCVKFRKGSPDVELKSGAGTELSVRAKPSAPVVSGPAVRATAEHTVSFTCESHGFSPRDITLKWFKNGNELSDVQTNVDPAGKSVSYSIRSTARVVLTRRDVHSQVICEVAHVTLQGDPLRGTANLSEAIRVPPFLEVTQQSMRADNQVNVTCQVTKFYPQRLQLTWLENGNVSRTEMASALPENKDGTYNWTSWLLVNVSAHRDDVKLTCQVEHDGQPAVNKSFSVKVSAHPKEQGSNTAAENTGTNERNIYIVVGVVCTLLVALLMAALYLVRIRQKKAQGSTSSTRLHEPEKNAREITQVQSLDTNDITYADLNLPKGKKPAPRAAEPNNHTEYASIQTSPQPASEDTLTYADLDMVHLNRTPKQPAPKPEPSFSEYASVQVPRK
Kind of assay: flow cytometry.

Assay [2] concerns the target T2, cynomolgus monkey SIRPγ on CHO cells (cynomolgus monkey, UniProt Q9P1W8 29-386 (human entry)).
T2 construct: also called Cyno SIRPγ CHO
T2 chain: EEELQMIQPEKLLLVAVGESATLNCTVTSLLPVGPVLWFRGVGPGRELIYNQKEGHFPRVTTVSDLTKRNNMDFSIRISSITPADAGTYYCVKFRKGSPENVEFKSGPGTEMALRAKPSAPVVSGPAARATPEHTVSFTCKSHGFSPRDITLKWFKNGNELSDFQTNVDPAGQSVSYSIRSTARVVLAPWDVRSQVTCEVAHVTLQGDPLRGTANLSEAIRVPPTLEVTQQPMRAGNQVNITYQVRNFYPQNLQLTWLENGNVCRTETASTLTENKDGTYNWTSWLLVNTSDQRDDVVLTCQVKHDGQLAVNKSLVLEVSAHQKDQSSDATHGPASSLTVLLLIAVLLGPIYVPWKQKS
Kind of assay: flow cytometry, myc-scFv PPE. In short, it runs like this:
(§1)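 Stably transfected CHO cells were incubated with titrated antibodies, and binding was detected with a fluorescent anti-human IgG secondary. Median fluorescence intensity was recorded at each concentration. For the myc-scFv format, crude periplasmic extract was incubated with the SIRP-expressing lines and parental CHO-K1, and fold change <2.0 was scored as non-binder.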
A general note: A flow cytometer gives signals particle by particle.

The target in assay [3] is T3, human SIRPγ on stably transfected CHO cells (human, UniProt Q9P1W8 29-387).
T3 construct: also called Human SIRPγ CHO
T3 sequence (Q9P1W8 29-387 limits assumed): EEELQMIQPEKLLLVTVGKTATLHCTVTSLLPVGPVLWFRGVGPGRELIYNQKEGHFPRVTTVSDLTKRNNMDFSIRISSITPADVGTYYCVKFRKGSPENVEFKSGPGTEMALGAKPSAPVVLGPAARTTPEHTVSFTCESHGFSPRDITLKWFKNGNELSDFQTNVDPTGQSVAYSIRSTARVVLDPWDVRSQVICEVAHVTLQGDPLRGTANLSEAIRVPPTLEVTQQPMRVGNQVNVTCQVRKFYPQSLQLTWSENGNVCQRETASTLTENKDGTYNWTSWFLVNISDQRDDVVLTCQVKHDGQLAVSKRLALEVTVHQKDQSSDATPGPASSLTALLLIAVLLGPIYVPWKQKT
Kind of assay: flow cytometry, myc-scFv PPE. In a few lines:
as §1

Assay [4] addresses T4, cynomolgus monkey SIRPγ-His monomer protein (cynomolgus monkey, UniProt Q9P1W8 29-359 (human entry), limits assumed).
T4 construct: also called Cyno SIRPγ; Cyno SIRPγ-His
T4 chain: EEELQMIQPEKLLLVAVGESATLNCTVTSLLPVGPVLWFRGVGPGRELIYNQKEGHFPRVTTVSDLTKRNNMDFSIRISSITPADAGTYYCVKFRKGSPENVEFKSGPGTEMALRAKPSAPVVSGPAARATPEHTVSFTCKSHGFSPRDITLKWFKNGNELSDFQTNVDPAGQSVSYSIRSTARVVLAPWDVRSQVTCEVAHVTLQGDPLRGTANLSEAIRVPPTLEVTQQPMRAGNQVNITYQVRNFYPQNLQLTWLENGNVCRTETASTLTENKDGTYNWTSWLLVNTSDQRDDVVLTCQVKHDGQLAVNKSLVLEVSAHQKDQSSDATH
Kind of assay: BLI Octet, captured scFv PPE, cyno SIRP. As for the experimental part:
Unique binders were further tested for binding to human SIRPαV1, human SIRPαV2, and human SIRPβ1. Briefly, biotinylated anti-V5 was immobilized onto streptavidin biosensors. Each V5-tagged SIRPγ scFv antibody as crude PPE was captured by the anti-V5 antibody. SIRP-His monomer protein at 500 nM was exposed to the biosensor for binding to SIRP scFv. The biosensors were then exposed to wash buffer to measure off-rate kinetics. The resulting association and dissociation kinetics (kdis) was analyzed. […] Similarly, cross-reactivity to cynomolgus monkey SIRPγ, cynomolgus monkey SIRPα, and cynomolgus monkey SIRPβ1 were tested.
Background: In BLI a coated tip is dipped into the sample, and binding shifts an interference pattern.

In assay [5] the target is T5, human SIRPγ-His monomer protein (human, UniProt Q9P1W8 29-360).
T5 construct: also called hSIRPγ
T5 sequence (Q9P1W8 29-360 limits assumed): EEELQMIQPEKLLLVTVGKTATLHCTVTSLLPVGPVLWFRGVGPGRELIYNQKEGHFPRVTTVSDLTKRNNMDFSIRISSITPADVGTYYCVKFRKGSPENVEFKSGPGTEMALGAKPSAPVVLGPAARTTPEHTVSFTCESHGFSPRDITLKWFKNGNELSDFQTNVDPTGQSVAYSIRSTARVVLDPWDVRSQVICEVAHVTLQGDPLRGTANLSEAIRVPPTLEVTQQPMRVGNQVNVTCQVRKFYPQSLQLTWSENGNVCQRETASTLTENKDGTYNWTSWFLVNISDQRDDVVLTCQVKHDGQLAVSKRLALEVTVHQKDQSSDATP
Kind of assay: BLI Octet, V5-scFv PPE captured, SIRP-His 500 nM.

The target of assay [6] is T6, human SIRPβ1 on CHO cells (co-transfected with DAP12) (human, UniProt O00241 30-398).
T6 construct: whole, on cells; co-transfected with DAP12; also called Human SIRPβ1 CHO
T6 sequence (O00241 30-398): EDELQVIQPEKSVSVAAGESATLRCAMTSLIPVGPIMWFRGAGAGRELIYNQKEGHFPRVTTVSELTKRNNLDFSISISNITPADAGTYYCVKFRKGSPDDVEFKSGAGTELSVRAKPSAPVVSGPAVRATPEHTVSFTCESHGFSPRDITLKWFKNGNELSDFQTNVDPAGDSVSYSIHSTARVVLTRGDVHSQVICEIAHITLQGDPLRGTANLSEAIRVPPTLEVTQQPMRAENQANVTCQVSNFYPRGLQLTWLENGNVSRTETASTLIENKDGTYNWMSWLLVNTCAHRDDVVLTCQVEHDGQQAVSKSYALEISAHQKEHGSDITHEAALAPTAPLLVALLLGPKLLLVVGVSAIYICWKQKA
The assay can be described thus: flow cytometry.

Where a chain is given by its changes, count along the chain named.

B1: Antibody 26 (scFv, V domains shown)
VH: QVQLVQSGAEVKKPGASVKVSCKASGYTFTSYYMHWVRQAPGQGLEWMGRINPNSGGTKYAQKFQGRVTMTRDTSTSTVYMELSSLRSEDTAVYYCARLGSAYFDLWGRGTLVTVSS
VL: DIQMTQSPSSLSASVGDRVTITCRASQSVDTWLAWYQQKPGKAPKLLIYEASTLESGVPSRFSGSGSGTDFTLTISSLQPEDFATYYCQQANSFPITFGQGTRLEIK
notes: scFv in crude PPE, V5/myc-tagged
On to B1, for which the binding result is on record as “no binding (tested: fold change <2.0)” in assay [1] and “binds” in assay [4]. The results for the “MFI fold change over parental CHO” value in assay [2] and in assay [3] were 40 fold and 28.4 fold, respectively. This molecule also registered a kdis in assay [5] of 0.001 to 0.01 s⁻¹.

B2: Antibody 40 (scFv, V domains shown)
VH: QVQLVQSGAEVKKPGSSVKVSCKASGGTFSSYAISWVRQAPGQGLEWVGRIHPRDGSTDYAQKFQGRVTITADESTSTAYMELSSLRSEDTAVYYCARVSLRFLEDYGMDVWGQGTTVTVSS
VL: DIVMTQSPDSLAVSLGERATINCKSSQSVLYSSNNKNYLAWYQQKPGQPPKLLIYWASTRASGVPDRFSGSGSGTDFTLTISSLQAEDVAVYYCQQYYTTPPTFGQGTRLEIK
notes: as for B1
B2: the figures for the binding result in assay [1], in assay [6] and in assay [4] were “no binding (tested: fold change <2.0)”, “no binding (tested: fold change <2.0)” and “binds”, respectively. Moreover, the “MFI fold change over parental CHO” value was 15.3 fold in assay [2] and 15.4 fold in assay [3]. The kdis in assay [5] lay within 0.001 to 0.01 s⁻¹.

B3: Antibody 42 (scFv, V domains shown)
VH: QVQLVQSGAEVKKPGASVKVSCKASGYTFTSYHMHWVRQAPGQGLEWMGWMNPNSGNTGYAQKFQGRVTMTRDTSTSTVYMELSSLRSEDTAVYYCARGGRVVRGVIKGWFDPWGQGTLVTVSS
VL: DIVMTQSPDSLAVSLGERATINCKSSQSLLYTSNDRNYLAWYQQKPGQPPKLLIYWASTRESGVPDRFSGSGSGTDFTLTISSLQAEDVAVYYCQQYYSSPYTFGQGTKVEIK
notes: as for B1
As to B3, the results for the binding result in assay [1], in assay [6] and in assay [4] were “no binding (tested: fold change <2.0)”, “no binding (tested: fold change <2.0)” and “binds”, respectively. The “MFI fold change over parental CHO” value amounted to 14.5 fold in assay [2] and 15.9 fold in assay [3]. The molecule also returned a kdis in assay [5] of more than 0.01 s⁻¹.

B4: Antibody 43 (scFv, V domains shown)
VH: QVQLVQSGAEVKKPGASVKVSCKASGGTFTSYDINWVRQAPGQGLEWMGWISAYNGHTNYAQNLQGRVTMTRDTSTSTVYMELSSLRSEDTAVYYCAREDSSWYFDLWGRGTLVTVSS
VL: DIQMTQSPSSLSASVGDRVTITCRASQSISSWLAWYQQKPGKAPKLLIYDASNLETGVPSRFSGSGSGTDFTLTISSLQPEDFATYYCQQSFSTPPTFGQGTKVEIK
notes: as for B1
As for B4, the values for the binding result in assay [1], in assay [6] and in assay [4] were “no binding (tested: fold change <2.0)”, “no binding (tested: fold change <2.0)” and “binds”, respectively. Moreover, the “MFI fold change over parental CHO” value amounted to 22.7 fold in assay [2] and 41.2 fold in assay [3].

B5: Antibody 37 (scFv, V domains shown)
VH: QVQLVQSGAEVKKPGASVKVSCKASGYTLNNYDINWVRQAPGQGLEWMGWISGYNGNTNYAQKLQGRVTMTRDTSTSTVYMELSSLRSEDTAVYYCARVGSSWEENDQWGQGTLVTVSS
VL: B4 VL with S31R, D50A, N53S, T56S, S91T, F92H, T94F, P96L, Q100G
notes: as for B1
On to B5, for which the binding result is “no binding (tested: fold change <2.0)” in assay [6] and “binds” in assay [4]. For the same molecule, the “MFI fold change over parental CHO” value in assay [2] is 15.5 fold; in assay [3] it was 31.1 fold. In addition, in assay [5], the kdis is 0.001 to 0.01 s⁻¹.

B6: Antibody 11 (scFv, V domains shown)
VH: QVQLVQSGAEVKKPGASVKVSCKASGYTFTSYDINWVRQAPGQGLEWMGWMNPNSGNTGYAQKFQGRVTMTRDTSTSTVYMELSSLRSEDTAVYYCAKGAVAGTYYYYGMDVWGQGTTVTVSS
VL: B4 VL with S28T, S30N, S31N, W32Y, A34N, S91A, F92N, T94F, P96L
notes: as for B1
As for B6, the binding result in assay [6] is “no binding (tested: fold change <2.0)”; in assay [4], “binds”. Besides, the “MFI fold change over parental CHO” value in assay [2] is 6.18 fold; in assay [3], 3.98 fold. In assay [5], this molecule came in with a kdis of 0.001 to 0.01 s⁻¹.

B7: Antibody 17 (scFv, V domains shown)
VH: QVQLVQSGAEVKKPGASVKVSCKASGYTFTRNYVHWVRQAPGQGLEWMGRINPNSGGTNTAQKFQGRVTMTRDTSTSTVYMELSSLRSEDTAVYYCARLGDVAVAASFDYWGQGTLVTVSS
VL: B4 VL with W32Y, A34N, N53S, T56S, S91A, F92N, T94F, P96L, Q100P, E105D
notes: as for B1
In the case of B7, the binding result is reported as “no binding (tested: fold change <2.0)” in assay [1] and “binds” in assay [4]. The “MFI fold change over parental CHO” value in assay [2] turned out to be 30.1 fold; in assay [3] it was 28.3 fold.

B8: Antibody 12 (scFv, V domains shown)
VH: QVQLVQSGAEVKKPGASVKVSCKASGGTFGSYGINWVRQAPGQGLEWMGWISAYNGNTNYAQKLQGRVTMTRDTSTSTVYMELSSLRSEDTAVYYCARDGIDYGGNSGYDYWGQGTLVTVSS
VL: DIQMTQSPSSLSASVGDRVTITCRASQNIRNYLNWYQQKPGKAPKLLIYAASSLQGGVPSRFSGSGSGTDFTLTISSLQPEDFATYYCQQSYNGPYTFGQGTKVEIK
notes: as for B1
As for B8, the binding result in assay [6] is “no binding (tested: fold change <2.0)”; in assay [4], “binds”. Moreover, the entries for the “MFI fold change over parental CHO” value in assay [2] and in assay [3] were 5.94 fold and 10.7 fold, respectively. The kdis in assay [5] was in the range of 0.001 to 0.01 s⁻¹.

B9: Antibody 13 (scFv, V domains shown)
VH: EVQLLESGGGLVQPGGSLRLSCAASGFTFSNSDMNWVRQAPGKGLEWVSYISSSGNTIYYADSVKGRFTISRDNSKNTLYLQMNSLRAEDTAVYYCARSNWNYPLDYYYMDVWGKGTTVTVSS
VL: DIVMTQSPLSLPVTPGEPASISCRSSQSLLHSNGYNYLDWYLQKPGQSPQLLIYAASSLQSGVPDRFSGSGSGTDFTLKISRVEAEDVGVYYCMQGTHWPPTFGQGTKVEIK
notes: as for B1
With B9, the values for the binding result in assay [1], in assay [6] and in assay [4] were “no binding (tested: fold change <2.0)”, “no binding (tested: fold change <2.0)” and “binds”, respectively. In addition, the entries for the “MFI fold change over parental CHO” value in assay [2] and in assay [3] were 5.22 fold and 7.06 fold, respectively. In addition, the kdis in assay [5] lay within 0.001 to 0.01 s⁻¹.

B10: Antibody 41 (scFv, V domains shown)
VH: QVQLVQSGAEVKKPGSSVKVSCKASGGTFSNYAISWVRQAPGQGLEWMGGIIPIFGSTASYAQKFQGRVTITADESTSTAYMELSSLRSEDTAVYYCARGVGDDTLTDWGQGTLVTVSS
VL: B9 VL with G96A, T97L, H98Q, W99T, P101L, Q105G
notes: as for B1
With B10, the values for the binding result in assay [1], in assay [6] and in assay [4] were “no binding (tested: fold change <2.0)”, “no binding (tested: fold change <2.0)” and “binds”, respectively. The “MFI fold change over parental CHO” value in assay [2] was found to be 36.1 fold; in assay [3] it was 25.5 fold. This molecule also yielded a kdis in assay [5] of more than 0.01 s⁻¹.

The record behind these values is patent US20240400677A1 (ELECTRA THERAPEUTICS, published 2024).
